# Reference: patent publication US20100323957A1 (University of California, published 2010)
# Target: wild-type EGFR kinase domain (residues 672-998 of human EGFR) with N-terminal 6-His tag, linker and TEV site (human, UniProt P00533 672-998)
# Experiment: cell-based or functional assay
binder,measurement,value
SYLNGVMPPTQSFAPDPKYVSSKAL [25-residue MIG6 peptide (residues 340-364)],"IC50, inhibition of activated EGFR kinase",~100 µM
